Read-outs that look alike come from different tables or passages of the source.
What was measured:
[1] = molecular target: keyhole limpet hemocyanin; test: polyreactivity ELISA
[2] = molecular target: keyhole limpet hemocyanin; test: polyreactivity ELISA; remark: listed apart in the source

Binding to KLH (normalised A450) [1]: 47.1 | Binding to KLH (normalised A450) [2]: 24.4
Substance: Bococizumab (antibody)
